The text below walks through data of article PMC3290749 (Oncogene, 2011).

The target of the test is IgB-1 (UniProt P00533 25-645). Nature of the test: ELISA. For orientation: An ELISA detects its analyte on a solid surface through an enzyme-linked reagent.

B1: heparin-binding EGF like growth factor (ligand, UniProt Q99075 63-148, looked up)
chain: DLQEADLDLLRVTLSSKPQALATPNKEEHGKRKKKGKGLGKKRDPCLRKYKDFCIHGECKYVKELRAPSCICHPGYHGERCHGLSL
Consider B1, for which the binding result is given as “binds”.
